Here are results for 14 molecules from paper PMC10132805 (2023).

T1: C terminal domain of polyadenylate-binding protein 1 (human, UniProt P11940 544-623)
T1 chain: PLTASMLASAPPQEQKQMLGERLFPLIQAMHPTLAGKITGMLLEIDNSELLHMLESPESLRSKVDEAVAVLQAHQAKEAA

T2: programmed cell death 6-interacting protein (ALIX) V domain (human)
T2 chain: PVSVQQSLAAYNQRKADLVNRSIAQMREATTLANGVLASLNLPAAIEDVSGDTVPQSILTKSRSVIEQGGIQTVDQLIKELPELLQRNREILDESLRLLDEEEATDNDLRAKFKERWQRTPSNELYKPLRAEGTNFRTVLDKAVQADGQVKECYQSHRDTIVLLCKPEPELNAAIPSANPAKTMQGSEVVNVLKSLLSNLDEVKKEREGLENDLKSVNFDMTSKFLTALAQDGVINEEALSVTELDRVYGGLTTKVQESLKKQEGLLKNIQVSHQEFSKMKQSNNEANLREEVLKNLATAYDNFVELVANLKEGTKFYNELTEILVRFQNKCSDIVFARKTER

B1: Mu homology domain (MHD) of the AP-2 subunit mu (domain or fragment)
chain: RNELFLDVLESVNLLMSPQGQVLSAHVSGRVVMKSYLSGMPECKFGMNDKIVIEKQGKGTADETSKSGKQSIAIDDCTFHQCVRLSKFDSERSISFIPPDGEFELMRYRTTKDIILPFRVIPLVREVGRTKLEVKVVIKSNFKPSLLAQKIEVRIPTPLNTSGVQVICMKGKAKYKASENAIVWKIKRMAGMKESQISAEIELLPTNDKKKWARPPISMNFEVPFAPSGLKVRYLKVFEPKLNYSDHDVIKWVRYIGRSGIYETR
B2: VHS domain of the ADP-ribosylation factor-binding protein GGA3 (domain or fragment)
chain: ATNPSNRQEDWEYIIGFCDQINKELEGPQIAVRLLAHKIQSPQEWEALQALTVLEACMKNCGRRFHNEVGKFRFLNELIKVVSPKYLGDRVSEKVKTKVIELLYSWTMALPEEAKIKDAYHMLKRQGIVQS
B3: GAE domain of the ADP-ribosylation factor-binding protein GGA3 (domain or fragment)
chain: SSALPVTAYDKNGFRILFHFAKECPPGRPDVLVVVVSMLNTAPLPVKSIVLQAAVPKSMKVKLQPPSGTELSPFSPIQPPAAITQVMLLANPLKEKVRLRYKLTFALGEQLSTEVGEVDQFP
B4: tumor susceptibility gene 101 protein UEV domain (domain or fragment)
chain: AVSESQLKKMVSKYKYRDLTVRETVNVITLYKDLKPVLDSYVFNDGSSRELMNLTGTIPVPYRGNTYNIPICLWLLDTYPYNPPICFVKPTSSMTIKTGKHVDANGKIYLPYLHEWKHPQSDLLGLIQVMIVVFGDEPPVFSRP
B5: N-terminal domain of clathrin (domain or fragment)
chain: MAQILPIRFQEHLQLQNLGINPANIGFSTLTMESDKFICIREKVGEQAQVVIIDMNDPSNPIRRPISADSAIMNPASKVIALKAGKTLQIFNIEMKSKMKAHTMTDDVTFWKWISLNTVALVTDNAVYHWSMEGESQPVKMFDRHSSLAGCQIINYRTDAKQKWLLLTGISAQQNRVVGAMQLYSVDRKVSQPIEGHAASFAQFKMEGNAEESTLFCFAVRGQAGGKLHIIEVGTPPTGNQPFPKKAVDVFFPPEAQNDFPVAMQISEKHDVVFLITKYGYIHLYDLETGTCIYMNRISGETIFVTAPHEATAGIIGVNRKGQVLSVCVEEENIIPYITNVLQNPDLALRMAVRNNLAGAEELF
B6: centrosomal protein of 55 kDa EABR domain (domain or fragment)
chain: FNSSINNIHEMEIQLKDALEKNQQWLVYDQQREVYVKGLLAKIFELEKKTETAAH

Some targets named below: Nsp4 75-90 (BAV); L (OLVV); EGFR 992-1007 (Human); ACP2 407-422 (Human); M 26-41 (RABV); SYNRG 664-679 (Human); VP40 1-20 (SEBOV); ARRB2 367-382 (Human); RdRp 1840-1855 (SVV); AP1B1 626-641 (Human).
Assay in all cases: FP
In experiment [1] the target is NP (ZEBOV) peptide with the 340-YQQL-343 sequence (Zaire ebolavirus, UniProt P18272).
The target in experiment [2] is T1, C terminal domain of ….
In experiment [3] the target is NP (ZEBOV) peptide with the 466-YGEY-469 stretch (Zaire ebolavirus, UniProt P18272).
Experiment [4] concerns the target TSG101 binding peptide from ALIX (PDC6IP) (human, UniProt Q8WUM4).
Experiment [5] concerns the target B5.
The target of experiment [6] is T2, programmed cell death 6-interacting ….
Experiment [7] has as its target Nsp3_(1765-1780) (EEEV) peptide (Eastern equine encephalitis virus).
Experiment [8] addresses Rabies virus (RABV) protein P peptide (Rabies virus).
In experiment [9] the target is CEP55 binding peptide from ALIX (human, UniProt Q8WUM4).
Experiment [10] has as its target Reston ebolavirus (REBOV) nucleoprotein (NP) peptide (Reston ebolavirus).
In experiment [11] the target is CEP55 binding peptide from TEX1 (human, UniProt Q8IWB6).

As to B1, the Kd in the experiment with Nsp4 75-90 (BAV) stood at 16 µM; with L (OLVV) it was 11 µM; with EGFR 992-1007 (Human) it was 2.4 µM; in experiment [1] it was 9.5 µM; with ACP2 407-422 (Human) it was 220 µM.
Turning to HPLLNPSALEFNPSQT [N_(351-366) (HCoV 229E) peptide], in [2], the Kd stood at 23 µM.
Still for that read-out and setting: next, MSKLSVNAPEFYPSGY [PABP-interacting protein 1 peptide PAIP1_(125-140)]: 1.6 µM.
In turn, B2 displayed a Kd in the experiment with M 26-41 (RABV) of 150 µM.
As for B3, the Kd in experiment [3] was found to be 10 µM; with SYNRG 664-679 (Human) it was 11 µM.
For B4, the Kd in [4] was determined as 150 µM; with VP40 1-20 (SEBOV), 12 µM.
Consider VDGAADLIDFSVPTDE [mu-NS_(705-720) (MRV1) peptide], for which, in experiment [5], binding was characterised by a dissociation constant (Kd) of 32 µM. In other words, the double-digit micromolar range.
The molecule VDEEKGLYPNLKLTEPTAPMIHNYM [Nsp4_(118-142) (BAV) peptide] yielded a Kd in experiment [6] of 160 µM.
The molecule NSMLNPNAVPFQPSPQ [N_(2-17) (BeV) peptide] yielded a Kd in experiment [2] of 2.7 µM.
Same read-out and setting: next, KSNLNPNAKEFVPGVK [PABP-interacting protein 2 peptide PAIP2_(108-123)]: 0.16 µM.
B5: the Kd in experiment [7] is 27 µM; with ARRB2 367-382 (Human) it was 39 µM; with RdRp 1840-1855 (SVV), roughly 800 µM; with AP1B1 626-641 (Human) it was 280 µM.
As to B6, the Kd was 22 µM in experiment [8], roughly 0.3 µM in experiment [9], 2.2 µM in experiment [10] and roughly 0.3 µM in [11].
For TTGLNPTAVPFTLRNL [P/V/C_(183-198) (NiV) peptide], binding in [2] was characterised by a dissociation constant (Kd) of 15 µM.
The same measure, in the same setting: the value for SAGLNPAAVPFVPKNQ [P/V/C_(183-198) (HeV) peptide] was 2 µM.

One may read the Kd as the free concentration of one partner at which half of the binding sites on the other are occupied at equilibrium, for simple one-to-one binding. Higher therefore signals a looser complex.
